Data on 3 molecules can be found in PMC5609712 (Molecular cell, 2017).

B2: Exonuclease 1, biotinylated, full length (enzyme, human, UniProt Q9UQ84 1-846, looked up)
chain: MGIQGLLQFIKEASEPIHVRKYKGQVVAVDTYCWLHKGAIACAEKLAKGEPTDRYVGFCMKFVNMLLSHGIKPILVFDGCTLPSKKEVERSRRERRQANLLKGKQLLREGKVSEARECFTRSINITHAMAHKVIKAARSQGVDCLVAPYEADAQLAYLNKAGIVQAIITEDSDLLAFGCKKVILKMDQFGNGLEIDQARLGMCRQLGDVFTEEKFRYMCILSGCDYLSSLRGIGLAKACKVLRLANNPDIVKVIKKIGHYLKMNITVPEDYINGFIRANNTFLYQLVFDPIKRKLIPLNAYEDDVDPETLSYAGQYVDDSIALQIALGNKDINTFEQIDDYNPDTAMPAHSRSHSWDDKTCQKSANVSSIWHRNYSPRPESGTVSDAPQLKENPSTVGVERVISTKGLNLPRKSSIVKRPRSAELSEDDLLSQYSLSFTKKTKKNSSEGNKSLSFSEVFVPDLVNGPTNKKSVSTPPRTRNKFATFLQRKNEESGAVVVPGTRSRFFCSSDSTDCVSNKVSIQPLDETAVTDKENNLHESEYGDQEGKRLVDTDVARNSSDDIPNNHIPGDHIPDKATVFTDEESYSFESSKFTRTISPPTLGTLRSCFSWSGGLGDFSRTPSPSPSTALQQFRRKSDSPTSLPENNMSDVSQLKSEESSDDESHPLREEACSSQSQESGEFSLQSSNASKLSQCSSKDSDSEESDCNIKLLDSQSDQTSKLRLSHFSKKDTPLRNKVPGLYKSSSADSLSTTKIKPLGPARASGLSKKPASIQKRKHHNAENKPGLQIKLNELWKNFGFKKDSEKLPPCKKPLSPVRDNIQLTPEAEEDIFNKPECGRVQRAIFQ
modifications: biotinylated (co-infected with a BirA virus)

Holding throughout (test): pull-down
Assay [1] has as its target B2.
Assay [2] deals with Mre11-Rad50-Nbs1 complex (triple flag on Mre11) (human, UniProt P49959 1-708; Q92878 1-1312; O60934 1-754).
Assay [3] has as its target T1, Mre11, flag-tagged, purified alone (human, UniProt P49959 1-708).
T1 sequence (looked up): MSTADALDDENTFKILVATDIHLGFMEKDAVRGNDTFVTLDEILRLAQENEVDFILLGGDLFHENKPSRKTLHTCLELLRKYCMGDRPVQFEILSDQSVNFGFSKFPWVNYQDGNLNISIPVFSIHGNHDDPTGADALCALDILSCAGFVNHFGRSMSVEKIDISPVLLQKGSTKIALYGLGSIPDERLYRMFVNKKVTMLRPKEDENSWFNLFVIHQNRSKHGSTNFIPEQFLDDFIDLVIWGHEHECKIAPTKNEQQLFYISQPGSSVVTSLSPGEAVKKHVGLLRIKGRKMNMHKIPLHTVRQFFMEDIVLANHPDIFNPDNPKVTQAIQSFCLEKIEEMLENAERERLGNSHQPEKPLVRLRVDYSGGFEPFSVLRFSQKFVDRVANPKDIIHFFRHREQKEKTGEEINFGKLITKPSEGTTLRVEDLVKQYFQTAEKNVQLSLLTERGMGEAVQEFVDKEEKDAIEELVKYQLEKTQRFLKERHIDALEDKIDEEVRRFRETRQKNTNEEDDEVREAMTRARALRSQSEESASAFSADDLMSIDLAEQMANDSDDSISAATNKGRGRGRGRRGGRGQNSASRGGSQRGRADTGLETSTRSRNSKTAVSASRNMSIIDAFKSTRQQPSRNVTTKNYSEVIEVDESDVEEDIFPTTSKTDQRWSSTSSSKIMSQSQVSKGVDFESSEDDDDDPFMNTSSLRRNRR

Chain of Mre11-Rad50-Nbs1 complex (triple flag on Mre11) (Q92878 whole entry, one chain of several): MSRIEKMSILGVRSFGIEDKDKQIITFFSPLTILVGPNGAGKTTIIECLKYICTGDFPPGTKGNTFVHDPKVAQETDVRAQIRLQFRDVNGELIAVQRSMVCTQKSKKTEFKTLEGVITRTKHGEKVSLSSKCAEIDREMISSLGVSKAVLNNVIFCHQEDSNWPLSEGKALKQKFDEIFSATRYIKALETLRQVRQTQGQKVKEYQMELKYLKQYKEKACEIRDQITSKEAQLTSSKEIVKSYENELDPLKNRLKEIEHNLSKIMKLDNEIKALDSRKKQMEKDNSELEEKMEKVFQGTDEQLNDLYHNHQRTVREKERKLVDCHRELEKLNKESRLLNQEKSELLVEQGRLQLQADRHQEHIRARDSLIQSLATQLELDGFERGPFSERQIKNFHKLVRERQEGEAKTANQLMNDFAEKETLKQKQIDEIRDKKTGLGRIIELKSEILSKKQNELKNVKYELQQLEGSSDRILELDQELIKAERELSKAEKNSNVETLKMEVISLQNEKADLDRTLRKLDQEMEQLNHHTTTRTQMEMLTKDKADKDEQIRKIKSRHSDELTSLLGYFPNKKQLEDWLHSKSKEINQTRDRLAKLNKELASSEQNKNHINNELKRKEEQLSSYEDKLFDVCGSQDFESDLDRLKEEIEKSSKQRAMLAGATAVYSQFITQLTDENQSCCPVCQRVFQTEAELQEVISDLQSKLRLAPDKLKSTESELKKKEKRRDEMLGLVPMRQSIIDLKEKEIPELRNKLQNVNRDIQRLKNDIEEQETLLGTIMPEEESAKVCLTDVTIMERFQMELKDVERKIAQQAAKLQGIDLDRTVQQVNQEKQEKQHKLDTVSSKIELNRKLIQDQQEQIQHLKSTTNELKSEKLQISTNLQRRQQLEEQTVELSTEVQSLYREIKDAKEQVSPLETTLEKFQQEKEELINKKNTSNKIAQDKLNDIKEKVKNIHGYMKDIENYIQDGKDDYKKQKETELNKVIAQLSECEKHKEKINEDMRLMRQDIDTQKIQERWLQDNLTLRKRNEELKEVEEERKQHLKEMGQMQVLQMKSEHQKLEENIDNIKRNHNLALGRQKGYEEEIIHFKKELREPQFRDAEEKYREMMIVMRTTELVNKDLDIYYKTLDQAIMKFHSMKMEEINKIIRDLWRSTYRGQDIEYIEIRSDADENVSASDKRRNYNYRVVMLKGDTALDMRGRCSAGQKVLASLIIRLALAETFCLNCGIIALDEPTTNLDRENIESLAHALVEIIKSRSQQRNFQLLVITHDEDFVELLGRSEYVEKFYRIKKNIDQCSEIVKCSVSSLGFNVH

B1: Nbs1, flag-tagged, purified alone (natural protein, human, UniProt O60934 1-754, looked up)
chain: MWKLLPAAGPAGGEPYRLLTGVEYVVGRKNCAILIENDQSISRNHAVLTANFSVTNLSQTDEIPVLTLKDNSKYGTFVNEEKMQNGFSRTLKSGDGITFGVFGSKFRIEYEPLVACSSCLDVSGKTALNQAILQLGGFTVNNWTEECTHLVMVSVKVTIKTICALICGRPIVKPEYFTEFLKAVESKKQPPQIESFYPPLDEPSIGSKNVDLSGRQERKQIFKGKTFIFLNAKQHKKLSSAVVFGGGEARLITEENEEEHNFFLAPGTCVVDTGITNSQTLIPDCQKKWIQSIMDMLQRQGLRPIPEAEIGLAVIFMTTKNYCDPQGHPSTGLKTTTPGPSLSQGVSVDEKLMPSAPVNTTTYVADTESEQADTWDLSERPKEIKVSKMEQKFRMLSQDAPTVKESCKTSSNNNSMVSNTLAKMRIPNYQLSPTKLPSINKSKDRASQQQQTNSIRNYFQPSTKKRERDEENQEMSSCKSARIETSCSLLEQTQPATPSLWKNKEQHLSENEPVDTNSDNNLFTDTDLKSIVKNSASKSHAAEKLRSNKKREMDDVAIEDEVLEQLFKDTKPELEIDVKVQKQEEDVNVRKRPRMDIETNDTFSDEAVPESSKISQENEIGKKRELKEDSLWSAKEISNNDKLQDDSEMLPKKLLLTEFRSLVIKNSTSRNPSGINDDYGQLKNFKKFKKVTYPGAGKLPHIIGGSDLIAHHARKNTELEEWLRQEMEVQNQHAKEESLADDLFRYNPYLKRRR
For B1, in assay [1], the binding result is reported as “binds”.

In the case of B2, the binding result in assay [2] is reported as “binds”.

B3: Exo1(NTD), catalytic Exo1 core, N-terminal domain encoding amino acids 1-352, biotinylated (domain or fragment, human, UniProt Q9UQ84 1-352, looked up)
chain: MGIQGLLQFIKEASEPIHVRKYKGQVVAVDTYCWLHKGAIACAEKLAKGEPTDRYVGFCMKFVNMLLSHGIKPILVFDGCTLPSKKEVERSRRERRQANLLKGKQLLREGKVSEARECFTRSINITHAMAHKVIKAARSQGVDCLVAPYEADAQLAYLNKAGIVQAIITEDSDLLAFGCKKVILKMDQFGNGLEIDQARLGMCRQLGDVFTEEKFRYMCILSGCDYLSSLRGIGLAKACKVLRLANNPDIVKVIKKIGHYLKMNITVPEDYINGFIRANNTFLYQLVFDPIKRKLIPLNAYEDDVDPETLSYAGQYVDDSIALQIALGNKDINTFEQIDDYNPDTAMPAHSR
Take B3: the binding result in assay [3] is “binds”.
